Legend:
Recombinant Human β-NGF [1] = molecular target: T1, Recombinant Human β-NGF (human, UniProt P01138 122-239, limits assumed); assay: cell-based or functional assay
[2] = molecular target: T2, Recombinant Human TNF-α/TNFSF1A (human, UniProt P01375 77-233); assay: cell-based or functional assay
[3] = molecular target: T2, Recombinant Human TNF-α/TNFSF1A; assay: SPR (Biacore)
Description: (§1) The BIACORE assay (Biacore, Inc, Piscataway, N.J.) determined the affinity of antibodies or DVD-Ig proteins with kinetic measurements of on-rate and off-rate constants. Binding of antibodies or DVD-Ig proteins to a target antigen (for example, a purified recombinant target antigen) was determined by surface plasmon resonance-based measurements with a Biacore® 1000 or 3000 instrument (Biacore® AB, Uppsala, Sweden) using running HBS-EP (10 mM HEPES [pH 7.4], 150 mM NaCl, 3 mM EDTA, and 0.005% surfactant P20) at 25° C. All chemicals were obtained from Biacore® AB (Uppsala, Sweden) or otherwise from a different source as described in the text. For example, approximately 5000 RU of goat anti-mouse IgG, (Fcγ), fragment specific polyclonal antibody (Pierce Biotechnology Inc, Rockford, Ill.) diluted in 10 mM sodium acetate (pH 4.5) was directly immobilized across a CM5 research grade biosensor chip using a standard amine coupling kit according to manufacturer's instructions and procedures at 25 μg/ml. Unreacted moieties on the biosensor surface were blocked with ethanolamine. Modified carboxymethyl dextran surface in flowcell 2 and 4 was used as a reaction surface. Unmodified carboxymethyl dextran without goat anti-mouse IgG in flow cell 1 and 3 was used as the reference surface. For kinetic analysis, rate equations derived from the 1:1 Langmuir binding model were fitted simultaneously to association and dissociation phases of all eight injections (using global fit analysis) with the use of Biaevaluation 4.0.1 software. Purified antibodies or DVD-Ig proteins were diluted in HEPES-buffered saline for capture across goat anti-mouse IgG specific reaction surfaces. Antibodies or DVD-Ig proteins to be captured as a ligand (25 μg/ml) were injected over reaction matrices at a flow rate of 5 μl/minute. The association and dissociation rate constants, kₒₙ (M⁻¹s⁻¹) and koff (s⁻¹) were determined under a continuous flow rate of 25 μl/minute. Rate constants were derived by making kinetic binding measurements at different antigen concentrations ranging from 10-200 nM. The equilibrium dissociation constant (M) of the reaction between antibodies or DVD-Ig proteins and the target antigen was then calculated from the kinetic rate constants by the following formula: KD=koff/kₒₙ. Binding was recorded as a function of time and kinetic rate constants were calculated.

Recombinant Human β-NGF [4] = molecular target: T1, Recombinant Human β-NGF; assay: SPR (Biacore)
Description: as §1

Recombinant Human SOST [5] = molecular target: T3, Recombinant Human SOST (human, UniProt Q9BQB4 24-213); assay: cell-based or functional assay
T3 sequence (looked up): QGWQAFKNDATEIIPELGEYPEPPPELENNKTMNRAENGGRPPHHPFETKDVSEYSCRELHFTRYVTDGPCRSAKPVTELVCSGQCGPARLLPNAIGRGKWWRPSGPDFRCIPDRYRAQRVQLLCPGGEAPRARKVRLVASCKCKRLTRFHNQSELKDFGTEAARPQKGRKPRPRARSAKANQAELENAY

Recombinant Human SOST [6] = molecular target: T3, Recombinant Human SOST; assay: SPR (Biacore)
Description: as §1

Recombinant Human β-NGF [7] = molecular target: T1, Recombinant Human β-NGF; assay: SPR (Biacore); antibody captured on anti-IgG Fc chip, antigen 10-200 nM in flow, 25 C, HBS-EP pH 7.4; koff 6.80E-06 is near the assay floor of 10^-6 s^-1
Description: The BIACORE assay (Biacore, Inc, Piscataway, N.J.) determined the affinity of antibodies or DVD-Ig proteins with kinetic measurements of on-rate and off-rate constants. Binding of antibodies or DVD-Ig proteins to a target antigen (for example, a purified recombinant target antigen) was determined by surface plasmon resonance-based measurements with a Biacore® 1000 or 3000 instrument (Biacore® AB, Uppsala, Sweden) using running HBS-EP (10 mM HEPES [pH 7.4], 150 mM NaCl, 3 mM EDTA, and 0.005% surfactant P20) at 25° C. All chemicals were obtained from Biacore® AB (Uppsala, Sweden) or otherwise from a different source as described in the text. […] The association and dissociation rate constants, kₒₙ (M⁻¹s⁻¹) and koff (s⁻¹) were determined under a continuous flow rate of 25 μl/minute. […] The equilibrium dissociation constant (M) of the reaction between antibodies or DVD-Ig proteins and the target antigen was then calculated from the kinetic rate constants by the following formula: KD=koff/kₒₙ. Binding was recorded as a function of time and kinetic rate constants were calculated.

T2 sequence (P01375 77-233 limits assumed): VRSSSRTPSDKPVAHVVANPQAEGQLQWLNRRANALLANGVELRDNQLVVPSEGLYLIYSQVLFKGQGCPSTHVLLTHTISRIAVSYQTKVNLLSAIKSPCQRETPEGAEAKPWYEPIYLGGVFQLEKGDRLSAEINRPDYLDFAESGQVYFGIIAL
T1 sequence (P01138 122-239 limits assumed): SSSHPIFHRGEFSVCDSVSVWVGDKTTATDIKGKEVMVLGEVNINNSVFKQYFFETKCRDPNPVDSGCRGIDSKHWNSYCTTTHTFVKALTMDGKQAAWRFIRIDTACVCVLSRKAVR

B1: DVD1960 (bispecific antibody, not shown: a dimerising Fc or GST)
heavy: DIVMTQSHKFMSTTVGDRVSITCKASQAVSSAVAWYQQKPGQSPKLLIYWASTRHTGVPDRFTGSGSVTDFTLTIHNLQAEDLALYYCQQHYSTPFTFGSGTKLEIKRTVAAPQVQLQESGPGLVKPSETLSLTCTVSGFSLIGYDLNWIRQPPGKGLEWIGIIWGDGTTDYNSAVKSRVTISKDTSKNQFSLKLSSVTAADTAVYYCARGGYWYATSYYFDYWGQGTLVTVSS
light: QVQLKESGPGLVAPSQSLSITCTVSGFSLTDYGVNWVRQPPGKGLEWLGMIWGDGSTDYDSTLKSRLSISKDNSKSQIFLKMNSLQTDDTARYYCAREWHHGPVAYWGQGTLVTVSAASTKGPDIQMTQSPSSLSASVGDRVTITCRASQSISNNLNWYQQKPGKAPKLLIYYTSRFHSGVPSRFSGSGSGTDFTFTISSLQPEDIATYYCQQEHTLPYTFGQGTKLEIKR
Work on B1 yielded a C-Terminal VD NGF Neutralization Assay IC50 (TF-1 cell proliferation) (Recombinant Human β-NGF [1]) of 3.12 nM and a N-Terminal VD TNFa Neutralization Assay IC50 (L929 cells) [2] of 0.086 nM.

B2: DVD1984 (bispecific antibody)
DVD-H: DIQMTQSPSSLSASVGDRVTITCRASQGIRIDLGWYQQKPGKAPKRLIYAASTLQSGVPSRFSGSGSGTEFIFTISSLQPEDFASYYCLQHKSYPLTFGGGTKVEIKRTVAAPQVQLQESGPGLVKPSETLSLTCTVSGFSLIGYDLNWIRQPPGKGLEWIGIIWGDGTTDYNSAVKSRVTISKDTSKNQFSLKLSSVTAADTAVYYCARGGYWYATSYYFDYWGQGTLVTVSS
DVD-L: QVQLVESGGGVVQPGRSLRLSCAASGFTFSSYDMHWVRQAPGKGLEWVAVIWSDGSIKYYADSVKGRFTISRDNSKNTLYLQMNSLRAEDTAVYYCAREVESAMGGFYYNGMDVWGQGTTVTVSSASTKGPDIQMTQSPSSLSASVGDRVTITCRASQSISNNLNWYQQKPGKAPKLLIYYTSRFHSGVPSRFSGSGSGTDFTFTISSLQPEDIATYYCQQEHTLPYTFGQGTKLEIK
notes: VH/VL crossover DVD-Ig; also called DVD1984H + DVD1984L; copies: 2 + 2
B2 showed a Kd [3] of 0.015 nM, a koff [3] of 3.7e-05 s⁻¹ and a kon [3] of 2.5e+06 M⁻¹ s⁻¹. It also gave a Kd (Recombinant Human β-NGF [4]) of 0.096 nM, a koff (Recombinant Human β-NGF [4]) of 4.3e-05 s⁻¹ and a kon (Recombinant Human β-NGF [4]) of 450000 M⁻¹ s⁻¹. For the same binder, the “C-Terminal VD NGF Neutralization Assay IC50 (TF-1 cell proliferation)” value (Recombinant Human β-NGF [1]) was 0.593 nM and the “N-Terminal VD TNFa Neutralization Assay IC50 (L929 cells)” value [2] was 0.017 nM.

B3: DVD1991 (bispecific antibody)
DVD-H: DVQMIQSPSSLSASLGDIVTMTCQASQGTSINLNWFQQKPGKAPKLLIYGSSNLEDGVPSRFSGSRYGTDFTLTISSLEDEDLATYFCLQHSYLPYTFGGGTKLEIKRTVAAPEVQLVESGGGLIQPGGSLRLSCAASGFTVSRNYMSWVRQAPGKGLEWVSVIYSGDRTYYADSVKGRFTISRDNSKNTLYLQMNSLRAEDTAVYYCARGEGGFDYWGQGTLVTVSS
DVD-L: EVQLQQSGPELVTPGASVKISCKASGYTFTDHYMSWVKQSHGKSLEWIGDINPYSGETTYNQKFKGTATLTVDKSSSIAYMEIRGLTSEDSAVYYCARDDYDASPFAYWGQGTLVTVSAASTKGPEIVMTQSPATLSVSPGERATLSCRASQSVSSNLAWYQQKPGQAPRLLIHGASIRATGLPARFSGSGSGTEFTLTISSLQSEDFAVYYCQQYNYWWTFGQGTKVEIK
notes: VH/VL crossover DVD-Ig; also called DVD1991H + DVD1991L; copies: 2 + 2
B3 was tested, and the “N-Terminal VD SOST Neutralization Assay IC50 (Wnt-1/luciferase HEK clone #14)” value (Recombinant Human SOST [5]) was 36 nM, the Kd [3] was 0.66 nM and the koff [3] was 7.1e-05 s⁻¹. It also gave a kon [3] of 110000 M⁻¹ s⁻¹, a Kd (Recombinant Human SOST [6]) of 0.017 nM and a koff (Recombinant Human SOST [6]) of 0.00025 s⁻¹. For the same binder, the kon (Recombinant Human SOST [6]) was 1.5e+07 M⁻¹ s⁻¹ and the “C-Terminal VD TNFα Neutralization Assay IC50 (L929 cells)” value [2] was 0.401 nM.

B4: DVD1990 (bispecific antibody)
DVD-H: EIVMTQSPATLSVSPGERATLSCRASQSVSSNLAWYQQKPGQAPRLLIHGASIRATGLPARFSGSGSGTEFTLTISSLQSEDFAVYYCQQYNYWWTFGQGTKVEIKRTVAAPEVQLQQSGPELVTPGASVKISCKASGYTFTDHYMSWVKQSHGKSLEWIGDINPYSGETTYNQKFKGTATLTVDKSSSIAYMEIRGLTSEDSAVYYCARDDYDASPFAYWGQGTLVTVSA
DVD-L: EVQLVESGGGLIQPGGSLRLSCAASGFTVSRNYMSWVRQAPGKGLEWVSVIYSGDRTYYADSVKGRFTISRDNSKNTLYLQMNSLRAEDTAVYYCARGEGGFDYWGQGTLVTVSSASTKGPDVQMIQSPSSLSASLGDIVTMTCQASQGTSINLNWFQQKPGKAPKLLIYGSSNLEDGVPSRFSGSRYGTDFTLTISSLEDEDLATYFCLQHSYLPYTFGGGTKLEIK
notes: VH/VL crossover DVD-Ig; also called DVD1990H + DVD1990L; copies: 2 + 2
With B4 the “C-Terminal VD SOST Neutralization Assay IC50 (Wnt-1/luciferase HEK clone #14)” value (Recombinant Human SOST [5]) was greater than 250 nM, the Kd [3] was 0.016 nM and the koff [3] was 4.5e-05 s⁻¹. It also gave a kon [3] of 2.8e+06 M⁻¹ s⁻¹, a Kd (Recombinant Human SOST [6]) of 0.33 nM and a koff (Recombinant Human SOST [6]) of 0.00058 s⁻¹. For the same binder, the kon (Recombinant Human SOST [6]) was 1.8e+06 M⁻¹ s⁻¹ and the “N-Terminal VD TNFa Neutralization Assay IC50 (L929 cells)” value [2] was 0.408 nM.

B5: AB020 (antibody, V domains shown)
VH: QVQLQESGPGLVKPSETLSLTCTVSGFSLIGYDLNWIRQPPGKGLEWIGIIWGDGTTDYNSAVKSRVTISKDTSKNQFSLKLSSVTAADTAVYYCARGGYWYATSYYFDYWGQGTLVTVSS
VL: DIQMTQSPSSLSASVGDRVTITCRASQSISNNLNWYQQKPGKAPKLLIYYTSRFHSGVPSRFSGSGSGTDFTFTISSLQPEDIATYYCQQEHTLPYTFGQGTKLEIKR
notes: Parent antibody; also called NGF parent antibody
With B5 the Kd (Recombinant Human β-NGF [7]) was 2.7 pM, the koff (Recombinant Human β-NGF [4]) was 6.8e-06 s⁻¹ and the kon (Recombinant Human β-NGF [4]) was 2.5e+06 M⁻¹ s⁻¹. For the same binder, the “NGF Neutralization Assay IC50 (TF-1 cell proliferation)” value (Recombinant Human β-NGF [1]) was 8 pM.

B6: DVD1961 (bispecific antibody)
heavy: DIQMTQSPSSLSASVGDRVTITCRASQSISNNLNWYQQKPGKAPKLLIYYTSRFHSGVPSRFSGSGSGTDFTFTISSLQPEDIATYYCQQEHTLPYTFGQGTKLEIKRTVAAPQVQLKESGPGLVAPSQSLSITCTVSGFSLTDYGVNWVRQPPGKGLEWLGMIWGDGSTDYDSTLKSRLSISKDNSKSQIFLKMNSLQTDDTARYYCAREWHHGPVAYWGQGTLVTVSA
light: QVQLQESGPGLVKPSETLSLTCTVSGFSLIGYDLNWIRQPPGKGLEWIGIIWGDGTTDYNSAVKSRVTISKDTSKNQFSLKLSSVTAADTAVYYCARGGYWYATSYYFDYWGQGTLVTVSSASTKGPDIVMTQSHKFMSTTVGDRVSITCKASQAVSSAVAWYQQKPGQSPKLLIYWASTRHTGVPDRFTGSGSVTDFTLTIHNLQAEDLALYYCQQHYSTPFTFGSGTKLEIK
notes: VH/VL crossover DVD-Ig; also called DVD1961H + DVD1961L
B6 showed a Kd [3] of 0.58 nM, a koff [3] of 9.9e-05 s⁻¹ and a kon [3] of 170000 M⁻¹ s⁻¹. It also gave a Kd (Recombinant Human β-NGF [4]) of less than 0.00031 nM, a koff (Recombinant Human β-NGF [4]) of less than 1e-06 s⁻¹ and a kon (Recombinant Human β-NGF [4]) of 3.2e+06 M⁻¹ s⁻¹. The “N-Terminal VD NGF Neutralization Assay IC50 (TF-1 cell proliferation)” value (Recombinant Human β-NGF [1]) was 0.132 nM and the “C-Terminal VD TNFα Neutralization Assay IC50 (L929 cells)” value [2] was 4.02 nM.

From US20130171059A1 (AbbVie / Abbott, published 2013)
